Experimental data: the nanobody polyreactivity screen of Harvey et al. (2022)

Assay: yeast display, Sf9 membrane polyspecificity reagent, FACS + sequencing; frameworks hold sequencing errors
In short: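 In a synthetic yeast display library (Saccharomyces cerevisiae BJ5465), nanobody expression was induced with galactose for 36–48 hours. FACS gates were set low and high (top ~1%) using anti-HA fluorescence for expression and streptavidin fluorescence for binding of the Sf9 membrane reagent. Each polyreactivity label is drawn from the gate of origin.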

Row | Sequence | polyreactivity (PSR sort gate)
1 | QVQLVESGGGLVQAGGSLRLSCAASGSIFGSYAMGWNRQAPGKDREFVAGIDQSGSSTYYADSVKGRFTISRDNAKNTVYLQMNSLKPEDTAVYYCAARHRYRTYKMYYWGQGTQVTVSS | high polyreactivity
2 | QVQLVESGGGLVQSGGSLRLSCAASGRTFRYYAMGWYRQAPGKERELVAAISWNGANTYYADSVKGRFTISRDNAKNTVYLQMNSLKPEDTAVYYCAATYYRWKGYDYWGQGTQVNVSS | high polyreactivity
3 | QVQVVESGGGLVQAGGSLRLSCAASGSTFGVYAMGWYRQAPGKEWELVAAISASTGSTYYADSVKGRFTISRDNAKQTVYLQMNSRKPEHTAVYYCAAAGYGKVRGDYWGQGTQVTVTS | low polyreactivity
4 | QVQLVESGGGLVQAGGSLRLSCAASGLIFVYNSMGWYRQAPGKERELVAGITSGGSTNYADSVKGRFTISRDNAKNTVYLQMNSLKPEDTAVYYCAAGYYDLYLWWGYDYWGQGTQVTVSS | high polyreactivity
5 | QVQLVESGGGLVQAGGSLRLSCAASGRIFHYNAMGWYRQAPGKERELVAAISTGGSTNYADSVKGRFTISRDNAKNTFYLQMYSLKPEDTAVYYCAADHPVTYPTSKFDFWGQGTQVTVSS | low polyreactivity
6 | QVQLVESGGGLLQAGGRLRLSCAASGFTSTRYAMGWYRQAPGKERELVAAISYGGGDTYYADSVKGRFTISRDNAKNTVYIQMNSMKPEDTAVYYCSSRLRSRNTRLYHWGQGTQGTVSS | high polyreactivity
7 | QVQLVESGGGLVQAGVRLRLSCAASGIIFRTYAMGWYRRAPGKERELVADITWSDGSTYYADSVKGRFTISRDNAKNTVYLQMNSLKPEDTAVYYCNADVLSDDSWWSYDYWGQGTQVTVSS | high polyreactivity
8 | QVQLVESGGGLVQAGGSLRLSCAASGSTFVSYAMGWYRQAPGKERELVAGISWSGTRTYYADSVKGRFTISRDNAKNTVYLQMNSLKPEDTAVYYFNAVYKYNYRTLDYWGQGTQVTVSS | high polyreactivity
9 | QVQVVESGGGIVQAGGSLRLSCAASGSIFETYAMGWYRQAPGKESELVAAISRTSGRTYYADSVKGRFTISRDNAMNSVYLQMNSLKPDDTAVYYCAAVVRNPGTYDYWGQGTQVTVSS | high polyreactivity
10 | QVHLVDSGGGLVQAGGSLRLSCAASGFNFTYYGMGSYRQAPGKERELVAAISESCGSTYYADSVKGRFTISRDNAKNTVYLQMTSLKPEDTAVYYCAADVTKRASRDYYWGQGTQVTVSS | high polyreactivity
11 | QVQLVESGGGLVQAGGSLRLSCAASGSTFWKYAMGWYRQAPGKERELVAAINTSGGRTYYADSVKGRCTISRDNAKNTVYLQMNSLKPEDTAVYYCNARQGITYKDGRSIKYDYWGQGTQVTGSS | high polyreactivity
12 | QVQLVESGGGVVQAGGSLRLSCAASGSIFGVYAMGWYRQAPGQERELVAAIDSGSSTDYADSVKGRFTISRDNAKNTVYLQMNSLKPEDTAGYYCYPLDLAPVDYWGQGTQVTVSS | low polyreactivity
13 | QVQLVESGGGLVQAGGSLRLICAASGSTFDLYAMGWYRQAPGKESELVAAITRCGSTYYADSVKGRFTISRDNAKNTVYLQMNSLKPEDTAVYYCAASRYYNTVHNGGDYWGQGTQVTLSS | high polyreactivity
14 | QVQLVESGGGLVQAGGSLRLSCAASGSIFSVYAMGWYRQAPGKERELVATITWSGGRTYYADSVKGRFTISRDNAKNTVYLQMNSLKPEDTAVYYCAATSWWATTGFDYWGQGTQVTVSS | low polyreactivity
15 | QVQLVESAGGLVQAGGSLRLSCAPSGRIFYYNAMGWYRQAPGKERELVAAITSGGSTNYADSVKGRFTISRDNAKNTVYLQMNSLKPEDTAVYYCAADYYFYVAGVHYDYWGQGTQVTVSS | low polyreactivity
16 | QVQLVESGGGLVQAGGSLRLSCAASGSTLYAYAMGWYRQAPGKERELVAAIRTGGSTYYADSVKGRFTISRDNAKNTVYLQMNSLKPEDTAVYYCAADHGYQYGYWGQGTQVTVSS | low polyreactivity
17 | HVQLQESGGGLVQAGGSLRLSCAASGSIFQATYMGWYRQAPGKEREFVASITYGSITNYADSVKGRFTIGRDNAKDTLYLQMNSLKPEDTAVYYCAVDRHYIPAFHYWGQGTEVTVSS | low polyreactivity
18 | QVQLVESGGGLVQAGGSLRLSCAASGRIFVPYAMGWSRQAPGKERELVAAISWRGGSTNYADSVKGRFTISRDNAKNTVYLQMNSLKPEDTAVYYCAAVPVRYRYSYGYYYWGQGTQVTVSS | high polyreactivity
19 | QVQLVESGGGLVQAGGSLRLSCAASGSTFSYNAMGWYRQAPGKERELVAAISKSGGSTSYADSVKGRFTISRDNAKNTVYLQMNSQKPEDTAVYYCNARYSRKYGYWGQGTQVTVSS | high polyreactivity
20 | QVQLVESGGGLVQAGGSLRLSCAASGSIFYINDMGWYRQAPGTERELVAAISWSGGTTYYADSVKGRFTISRDNAKNTVYLQMNSLKPEDTAVYYCATDSFFLFPWGLSDYWGQGTQVTVSS | low polyreactivity
21 | QVQLVESGGGLVQAGGSLRLSCAASGITFPYYAMGWSRQAPGKERELVAAISSSGGSSYYADSVKGRFTISRDNAKNTVYLQMNSLKPEDTAVYYCATRNTRFHLDYWGQGTQVTVSS | high polyreactivity
22 | QVQLVESGGGLVKAGGSLRLSSAASGRTFKWYAMGWSRQAPGKERELVAVITGRGGSTYYADSVKGRFTISRDNAKNTVYLQMNSLKPEDTAVYSCAARGYSLVASSLYYYWGQGTQVTVSS | high polyreactivity

Row | Sequence | polyreactivity (PSR sort gate)
23 | QVQLVESGGGLVQAGGSLRLSCAASGTFTVNTMGCYRQAPGKERELVAAISTGDTTTYADSVKGRFTISRDNAKNTVYLQMNSLKPEDTAVYYCNVDIGVYAYESDYWGQGTQVTVSS | low polyreactivity
24 | QVQLVESGGGLVQAGGSLRLSCAASGRTFGTYAMGWYRQAPGKERELVAAISRRGGTTYYADSVKGRFTISRDNAKNTVYLQMNSLKPEDTAVYYCARASWSITTVLSTMDYWGQGTQVTVSS | high polyreactivity
25 | QVQLVESGGGLVQAGGSLRLSCAASGSNFANYAMGWYRQAPGKEREFVAGISGSGGSTFYADSVKGRFTISRDNAKNTVYLQMNSLKPEDTAVYYCAVVQRSKRTYPWYDYWGQGTQVTVSS | low polyreactivity
26 | QGQLVESGGRLVQAGGSLRLSCAASGFIFRSYAMGWYRQAPAKERELVAVISRRGVNTPYADSVKGRFTISRDTSKNTVYLQMNSLKAEDTAVYYCAKGLTALGDYWGQGTQVNVSS | high polyreactivity
27 | QVQLVESGGGLVQAGGSLRLSCAASGFTFRWNAMGWYRQAPGKERELVAAITSRGGSTYYADSVKGRFTISRDNAKNTVYLQINSLKPEDTAVYYCARLAGIGFSYRYDYWGQGTQVTVSS | high polyreactivity
28 | QVQLVESGRGLVQAGGSLRLSCAASGRIFKAYAMGWYRQATGKERELVAAITRGGRTKYADSVKGRFTISRDNAKNTVYLQMNSLKPEDTAVYYCAAELPGGYLVDYDYWGHGTQVTVSS | high polyreactivity
29 | QVQLVESGGGLVQAGGSLRLSCAASGRTFNKYAMGWYRKAPGKERELVAAINYSGGRTYYADSVKGRFTISRDNAKNTVSLQMNSLKPEDTAVYYCNRDDAWQEYDYWGQGTQVTVSS | low polyreactivity
30 | QGQLVESGGGLVQAGGSLRLSCADSGNTFNPNAMGWYRQAPGKERELVAVIRFRGVSKYYADSVKGRFTISRDNAKNSVYLQMNSLKPEDTAVYYCAADFLYYYLRYYFWGQGTQVTVSS | high polyreactivity
31 | QVQLEDSRVGLVQAVGILRLSCASSGSTIDDNVMGWYRQAPRNERELVAAICSSGGSPYYADSVKGRFTISRDNAKNTDYLLMNSLKPEDTAVYYCNAVYFRLWGYYDRRSYNYWGQGTQVTVSS | low polyreactivity
32 | QVQLEESGGGLVQAGGSLRLSCAASGLIFWAYAMGWYRQAPGKDTELVAAINWRGGSTYYADSVKGRFTISRDNAKNTVYLQMNSLKPEDTAVYFCAGDSSYDEYDYWGQGTQVTVSS | low polyreactivity
33 | QVQLVESGGGLVQAGGSLRLSCAASGIIFSRYAMGWYRQAPGKERELVAVISSSGGRTYYADSVKGRFTISRDNAKNTVYLQMNSLKPEDTAVYYCAAYTRTGSHLRAYYYWGQGTQVTVSS | high polyreactivity
34 | QDQLVESGGGLVQAGGSLRLSCASSGLIFYTSSMGWYSQAPGKESGLVAAITRSDSSTYYADSVKGRFTISRDNATNTVYLQMTSLKPEDPAVYYFATPSVFLFSEYDYWGQGTKVTVSS | low polyreactivity
35 | QVQLVESGGGLVQEGGSLRLSCAASGITFGTNAMGWYRQAPGKERELVAAIRRDGSTYYADSVKGRFTISRDNAKNTVYLQMNSLKPEDTAVYYCAATYWGRAYQGYRNLLYGYWGQGTQVTVSS | high polyreactivity
36 | QVQLVESGGGLVQAGGSLRLSCAASGRIFYSYAMGWYRQAPGKERELVATITRRGSSTYYADSVKGRFTISRDNAKNTVYLQMNSLKPEDTAVYYCNAVGVRRAIGYPSQTEYGYWGQGTQVTVSS | high polyreactivity
37 | QVQLVESGGGLVQAGGSLRLSCAPSGITFSYSAMGWYRQAPGKERELVAAISGSGTSTYYADSVKGRFTISRDNAKNTVYVQMNSLKPEVTAVYYCAAKGRKSVYSRNSWGQGTQVTVSS | high polyreactivity
38 | QVQLVESGGGLVQAGGSLRLSCAASGRNFENNAMGWYRQAPGKERELVAAITSSGGRTYYADSVKGRFTISRDNAKNTVYLQMNSLKPEDTAVYYCAADNFAPEFYYWGQGTQVTVSS | low polyreactivity
39 | QVQLVESGGGLVQAGGSLRLSCAASGSIFWTIAMGWYRQSPGKERELVASIHSSDASTDYADSVKGRFTISRDNAKNTVYLKMNSLKPEDTAVYYCNAAGAYPYYSEDYYWGQGTQVTVSS | low polyreactivity
40 | QVQLVESGGGLVQAGGSLRLSCAASGFIFRVYTMGWYRQAPGKERELVAAISYRGGRTYYADSVKGRFTISRDNAKNTVYLQMNSQKPEDTAVYYCAADRVNREFDYWGQGTQVTVSS | high polyreactivity
41 | QVQLVESGGGLFQAGGSLRLSCAASGSTLRDYVMGWYRQAPGKERELVAAISWTGDRTYYADSVKGRFTISRDNAKNTVYLQMNSLKPEDTAVYYCNAVYHVTRQGNLDSWGQGTQVTVSS | low polyreactivity
42 | QVQLVESVGGLVQAGGSLRLSCAASGIIFVYYVMGWYRQAPGKERELVASIDGSGGSTNYADSVKGRFTISRDNAKNTVYLQMNSLKPEDTAVYYCNADNILYWSTLDYWGQGTQVTVSS | low polyreactivity
43 | QVQLVESGGGLVQEGGSLRLSCAASGRTFSYNAMGWYSQAPGKERELFAAITGRGGSTYYADSVKGRFTISRDNAKKTVYLQMNRLKPEVTAVYYCNAVDAGYHRDRDYWGLGTQVTVSS | low polyreactivity
